Measurements published in publication PMC7026729 (EBioMedicine, 2020).
Changes are numbered by the printed parent chain.

B1: Bacterial lipocalin Blc^G84 (natural protein, E. coli, UniProt P0A901 19-177, looked up)
chain: CSSPTPPRGVTVVNNFDAKRYLGTWYEIARFDHRFERGLEKVTATYSLRDDGGLNVINKGYNPDRGMWQQSEGKAYFTGAPTRAALKVSFFGPFYGGYNVIALDREYRHALVCGPDRDYLWILSRTPTISDEVKQEMLAVATREGFDVSKFIWVQQPGS
B2: Bacterial lipocalin Blc^E84 (natural protein, E. coli, UniProt P0A901 19-177, looked up)
chain: B1 chain with G66E

Target: the molecule itself
Assay: cross-linking

Protein	stoichiometry N
B1	2
B2	2
